Data: article PMC9035715, “Regulatory subunit NEMO promotes polyubiquitin-dependent induction of NF-κB through a targetable second interaction with upstream activator IKK2” (The Journal of Biological Chemistry, 2022)
Values belong to the binder of their own block, whether it stands above or below them.

Tests used:
Conditions in all cases: both partners purified
[1] = target: T1, linear tetra-ubiquitin (Ub4), M1-linked (UniProt P0CG48 1-76; P0CG48 1-76; P0CG48 1-76; P0CG48 1-76); assay: SEC; Superose6 Increase 10/300 GL; 25 mM Tris–HCl pH 8.0, 250 mM NaCl, 2 mM DTT, 5% glycerol; 0.2 ml/min, 22 °C; peak fractions on Coomassie-stained SDS-PAGE
T1 construct: ubiquitin, copy 1 of four moieties covalently linked N-terminal to C-terminal on one chain (M1 linked); ubiquitin, copy 2 of four; ubiquitin, copy 3 of four; ubiquitin, copy 4 of four; also called linear poly-Ub; methionine-linked Ub4 chain; source: recombinant (pET24d construct), purified; not shown: His6, N-terminal, kept
T1 sequence (P0CG48 1-304, one chain of several): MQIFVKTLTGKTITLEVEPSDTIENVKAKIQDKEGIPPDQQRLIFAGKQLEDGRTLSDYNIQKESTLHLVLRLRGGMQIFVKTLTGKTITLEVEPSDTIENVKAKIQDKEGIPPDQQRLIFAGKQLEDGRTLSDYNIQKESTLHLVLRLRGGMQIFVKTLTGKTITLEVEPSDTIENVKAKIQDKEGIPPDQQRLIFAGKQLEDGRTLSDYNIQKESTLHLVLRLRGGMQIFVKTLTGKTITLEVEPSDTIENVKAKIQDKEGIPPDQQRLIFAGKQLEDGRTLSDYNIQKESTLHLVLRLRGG

[2] = target: T1, linear tetra-ubiquitin (Ub4), M1-linked; assay: pull-down; Ub4 recovered with GST-NEMO^241–419 from mixtures with HA-IKK2 HEK293T lysate, with or without TAT peptides (200–25 μM), 2 h at 4 °C; Western blot
[3] = target: T1, linear tetra-ubiquitin (Ub4), M1-linked; assay: pull-down; purified GST-NEMO fusions mixed with purified IKK proteins in the presence of Ub4, 1 h at 4 °C, then glutathione–agarose beads 2 h at 4 °C; 25 mM Tris–HCl pH 7.5, 150 mM NaCl, 1 mM EDTA, 0.5% NP-40, 0.55% Triton X-100, 5% glycerol, 1 mM DTT; four washes; Western blot

binding result [3]: binds
B4: GST-NEMO^111–419 (domain or fragment, human, UniProt Q9Y6K9 111-419, looked up)
chain: KLDLKRQKEQALREVEHLKRCQQQMAEDKASVKAQVTSLLGELQESQSRLEAATKECQALEGRARAASEQARQLESEREALQQQHSVQVDQLRMQGQSVEAALRMERQAASEEKRKLAQLQVAYHQLFQEYDNHIKSSVVGSERKRGMQLEDLKQQLQQAEEALVAKQEVIDKLKEEAEQHKIVMETVPVLKAQADIYKADFQAERQAREKLAEKKELLQEQLEQLQREYSKLKASCQESARIEDMRKRHVEVSQAPLPPAPAYLSSPLALPSQRRSPPEEPPDFCCPKCQYQAPDMDTLQIHVMECIE
notes: also called truncated NEMO (lacking the KBD); source: E. coli Rosetta (DE3), purified (glutathione–agarose); not shown: GST, N-terminal, kept

binding result [1]: binds
B5: GST-NEMO^241–375 (domain or fragment, human, UniProt Q9Y6K9 241-375, looked up)
chain: YDNHIKSSVVGSERKRGMQLEDLKQQLQQAEEALVAKQEVIDKLKEEAEQHKIVMETVPVLKAQADIYKADFQAERQAREKLAEKKELLQEQLEQLQREYSKLKASCQESARIEDMRKRHVEVSQAPLPPAPAYL
notes: source: E. coli Rosetta (DE3), purified (glutathione–agarose); not shown: GST, N-terminal, kept

binding result [1]: binds
B6: GST-NEMO^241–350 (domain or fragment, human, UniProt Q9Y6K9 241-350, looked up)
chain: YDNHIKSSVVGSERKRGMQLEDLKQQLQQAEEALVAKQEVIDKLKEEAEQHKIVMETVPVLKAQADIYKADFQAERQAREKLAEKKELLQEQLEQLQREYSKLKASCQES
notes: as for B5

Further lines, the binder ahead of its results:

B1: GST-NEMO^241–390 (domain or fragment, human, UniProt Q9Y6K9 241-390, looked up)
chain: YDNHIKSSVVGSERKRGMQLEDLKQQLQQAEEALVAKQEVIDKLKEEAEQHKIVMETVPVLKAQADIYKADFQAERQAREKLAEKKELLQEQLEQLQREYSKLKASCQESARIEDMRKRHVEVSQAPLPPAPAYLSSPLALPSQRRSPPE
notes: as for B5
binding result [1]: binds

B2: GST-NEMO^241–383 (domain or fragment, human, UniProt Q9Y6K9 241-383, looked up)
chain: YDNHIKSSVVGSERKRGMQLEDLKQQLQQAEEALVAKQEVIDKLKEEAEQHKIVMETVPVLKAQADIYKADFQAERQAREKLAEKKELLQEQLEQLQREYSKLKASCQESARIEDMRKRHVEVSQAPLPPAPAYLSSPLALPS
notes: as for B5
binding result [1]: binds

B3: GST-NEMO^241–419 (domain or fragment, human, UniProt Q9Y6K9 241-419, looked up)
chain: YDNHIKSSVVGSERKRGMQLEDLKQQLQQAEEALVAKQEVIDKLKEEAEQHKIVMETVPVLKAQADIYKADFQAERQAREKLAEKKELLQEQLEQLQREYSKLKASCQESARIEDMRKRHVEVSQAPLPPAPAYLSSPLALPSQRRSPPEEPPDFCCPKCQYQAPDMDTLQIHVMECIE
notes: also called CC2-ZF; source: E. coli Rosetta (DE3), purified (glutathione–agarose); not shown: GST, N-terminal, kept
binding result [2]: binds
